Seven molecules from patent US20130272968A1 (Bayer, published 2013) can be followed below.

Assay [1] concerns the target T1, extracellular domain of human PRLR (soluble, monomeric, expressed in HEK293 cells) (human, UniProt P16471 25-234).
T1 construct: also called ECD-PRLR; ECD of PRLR
T1 sequence: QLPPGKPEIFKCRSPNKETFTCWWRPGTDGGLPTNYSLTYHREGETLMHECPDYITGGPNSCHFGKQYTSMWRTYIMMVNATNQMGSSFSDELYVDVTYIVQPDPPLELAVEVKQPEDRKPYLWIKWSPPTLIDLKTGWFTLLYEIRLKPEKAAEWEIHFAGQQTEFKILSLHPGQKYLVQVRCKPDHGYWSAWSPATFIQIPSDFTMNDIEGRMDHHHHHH
The assay can be described thus: HTRF competition: Fab-containing E. coli supernatant with biotinylated ECD of human PRLR and streptavidin-europium, then Alexa Fluor 647-labelled IgG1 006-H08 as competitor; signal at 665 nm after 5 to 65 min; lower signal than control Fab 006-H08 = improved binding.

Assay [2] has as its target T2, human prolactin receptor on cells (T47D cells; HEK293 and Ba/F cells stably transfected with human PRLR) (human, UniProt P16471 25-622).
T2 sequence (looked up): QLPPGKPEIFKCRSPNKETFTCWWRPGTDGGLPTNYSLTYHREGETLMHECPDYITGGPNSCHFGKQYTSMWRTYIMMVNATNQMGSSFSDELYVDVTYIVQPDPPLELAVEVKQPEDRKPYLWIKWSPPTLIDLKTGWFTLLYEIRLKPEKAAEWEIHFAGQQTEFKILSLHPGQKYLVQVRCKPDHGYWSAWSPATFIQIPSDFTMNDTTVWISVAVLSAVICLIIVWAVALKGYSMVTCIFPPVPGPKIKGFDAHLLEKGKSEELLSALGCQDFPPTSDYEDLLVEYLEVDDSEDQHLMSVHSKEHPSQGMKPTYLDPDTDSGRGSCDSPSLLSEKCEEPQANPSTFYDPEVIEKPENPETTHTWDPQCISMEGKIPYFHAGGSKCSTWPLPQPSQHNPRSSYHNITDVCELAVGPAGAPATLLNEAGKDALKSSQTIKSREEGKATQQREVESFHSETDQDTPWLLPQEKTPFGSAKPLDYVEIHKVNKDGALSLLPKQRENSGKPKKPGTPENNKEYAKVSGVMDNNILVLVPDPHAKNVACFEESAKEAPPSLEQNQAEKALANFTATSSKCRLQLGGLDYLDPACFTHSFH
Nature of the assay: cell-based or functional assay.

The target of assay [3] is T3, murine prolactin receptor on cells (HEK293 and Ba/F cells stably transfected with murine PRLR) (mouse, UniProt Q08501 20-608).
T3 sequence (looked up): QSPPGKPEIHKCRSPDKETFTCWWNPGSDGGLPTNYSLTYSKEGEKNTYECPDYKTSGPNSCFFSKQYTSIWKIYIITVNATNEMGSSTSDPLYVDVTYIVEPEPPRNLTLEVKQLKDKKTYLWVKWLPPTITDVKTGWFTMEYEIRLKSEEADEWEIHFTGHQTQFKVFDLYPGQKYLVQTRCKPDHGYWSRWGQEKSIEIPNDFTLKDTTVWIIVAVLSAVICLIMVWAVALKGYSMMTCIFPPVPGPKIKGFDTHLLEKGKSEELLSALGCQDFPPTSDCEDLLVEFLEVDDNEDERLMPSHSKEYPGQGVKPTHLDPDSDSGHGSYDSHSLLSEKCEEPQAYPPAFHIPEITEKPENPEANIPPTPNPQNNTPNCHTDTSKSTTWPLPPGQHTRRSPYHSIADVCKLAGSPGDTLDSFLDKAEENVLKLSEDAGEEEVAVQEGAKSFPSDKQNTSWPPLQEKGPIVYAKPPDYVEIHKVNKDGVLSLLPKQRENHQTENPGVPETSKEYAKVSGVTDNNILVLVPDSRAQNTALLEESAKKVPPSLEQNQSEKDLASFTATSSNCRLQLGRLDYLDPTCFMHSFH
The assay can be described thus: cell-based or functional assay.

B1: 006-H08-12-2 (Fab, V domains shown)
VH: EVQLLESGGGLVQPGGSLRLSCAASGFTFDDYGMSWVRQAPGKGLEMVAVISFDGSNKYYADSVKGRFTISRDNSQNTLYLQMNSLRAEDTAVYYCASPLESPVAFDIWGQGTLVTVSS
VL: QSVLTQPPSASGTPGQRVTISCSGLNSNVGSSPVNWYQQLPGTAPKLLIYDNNKRPSGVPDRFSGSKSGTSASLAISGLRSEDEADYYCQSYDEGSGMWVFGGGTKLTVL
notes: Tested as E. coli supernatant; also called maturated 006-H08 Fab variant; copies: 1 + 1
Turning to B1, the binding result in assay [1] was “binds”.

B2: 006-H08-29-1 (Fab, V domains shown)
VH: EVQLLESGGGLVQPGGSLRLSCAASGFTFDDYGMSWVRQAPGKGLEMVAVISFDGSNKYYADSVKGRFTISRDNSQNTLYLQMNSLRAEDTAVYYCASPLESPVAFDIWGQGTLVTVSS
VL: QSVLTQPPSASGTPGQRVTISCSGLNDNVGGSPVNWYQQLPGTAPKLLIYDNNKRPSGVPDRFSGSKSGTSASLAISGLRSEDEADYYCQSYDTGAGMWVFGGGTKLTVL
notes: as for B1
With B2, the binding result in assay [1] is reported as “binds”.

B3: 006-H08-39-7 (Fab, V domains shown)
VH: EVQLLESGGGLVQPGGSLRLSCAASGFTFDDYGMSWVRQAPGKGLEMVAVISFDGSNKYYADSVKGRFTISRDNSQNTLYLQMNSLRAEDTAVYYCASPLESPVAFDIWGQGTLVTVSS
VL: QSVLTQPPSASGTPGQRVTISCSGLNSNVGGSPVNWYQQLPGTAPKLLIYDNNKRPSGVPDRFSGSKSGTSASLAISGLRSEDEADYYCQSYDEGSGMWVFGGGTKLTVL
notes: as for B1
As for B3, the binding result in assay [1] is “binds”.

B4: 006-H08-15-5 (Fab, V domains shown)
VH: EVQLLESGGGLVQPGGSLRLSCAASGFTFDDYGMSWVRQAPGKGLEMVAVISFDGSNKYYADSVKGRFTISRDNSQNTLYLQMNSLRAEDTAVYYCASPLESPVAFDIWGQGTLVTVSS
VL: QSVLTQPPSASGTPGQRVTISCSGLNSNIGGSPVNWYQQLPGTAPKLLIYDNNKRPSGVPDRFSGSKSGTSASLAISGLRSEDEADYYCQSYDEGLSGWVFGGGTKLTVL
notes: as for B1
For B4, the binding result in assay [1] is on record as “binds”.

B5: 006-H08-48-5 (Fab, V domains shown)
VH: EVQLLESGGGLVQPGGSLRLSCAASGFTFDDYGMSWVRQAPGKGLEMVAVISFDGSNKYYADSVKGRFTISRDNSQNTLYLQMNSLRAEDTAVYYCASPLESPVAFDIWGQGTLVTVSS
VL: QSVLTQPPSASGTPGQRVTISCSGLNDNVGSNPVNWYQQLPGTAPKLLIYDNNKRPSGVPDRFSGSKSGTSASLAISGLRSEDEADYYCQSYDTGSSMWVFGGGTKLTVL
notes: as for B1
On to B5, for which the binding result in assay [1] is “binds”.

B6: 006-H08 (human IgG1) (antibody, V domains shown)
VH: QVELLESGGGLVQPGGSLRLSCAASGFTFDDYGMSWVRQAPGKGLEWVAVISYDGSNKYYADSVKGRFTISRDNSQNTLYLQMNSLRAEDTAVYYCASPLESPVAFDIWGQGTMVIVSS
VL: DIVLTQPPSASGTPGQRVTISCSGSNSNIGSNPVNWYQQLPGTAPKLLIYDNNKRPSGVPDRFSGSKSGTSASLAISGLRSEDEADYYCQSYDTGLSGWVFGGGTKLTVLG
Regarding B6, the “IC50, prolactin-activated luciferase reporter gene activity, HEK293 cells stably transfected with hPRLR” value in assay [2] turned out to be 0.83 µg/mL.

B7: HE06.642 (antibody, IgG1, V domains shown)
VH: EVQLVESGGGLVQPGGSLRLSCAVSGFTFSSYGMSWVRQAPGKGLEWVATVSSGGTYTYYPDSVKGRFTISRDNSKNTLYLQMNSLRAEDTAVYYCARHRGNYYATYYYAMDYWGQGTLVTVSS
VL: DIVLTQSPDSLAVSLGERATINCKASKSVSTSGYTYMHWYQQKPGQPPKLLIYLASNRESGVPDRFSGSGSGTDFTLTISPVQAEDVATYYCQHSGELPPSFGQGTKLEIKR
For the molecule B7, in assay [3], the “IC50, inhibition of prolactin-activated proliferation of Ba/F cells stably expressing the murine prolactin receptor” value was more than 30 µg/mL. In assay [2], the “IC50, prolactin-activated luciferase reporter gene activity, HEK293 cells stably transfected with hPRLR” value stood at 0.63 µg/mL.
